Laboratory results: patent publication US20260176627A1 (University of Washington, published 2026)

Target: T1, NLS-λN-GFP1-10
T1 construct: also called LambdaN-GFP1-10; second protein of pCMV::GFP11-NLS-MCP-IRES-NLS-λN-GFP1-10; not shown: my translati
Experiment: split-GFP complementation, fluorescence in transfected HEK293T cells

B1: GFP11-NLS-MCP (other, not shown: small tags and cut ends)
chain: MRDHMVLHESVNAAGITASNFTQFVLVDNGGTGDVTVAPSNFANGVAEWISSNSRSQAYKVTCSVRQSSAQKRKYTIKVEVPKVATQTVGGVELPVAAWRSYLNMELTIPIFATNSDCELIVKAMQGLLKDGNPIPSAIAANSGLY
notes: linker and NLS are known only from the DNA; also called first protein of pCMV::GFP11-NLS-MCP-IRES-NLS-λN-GFP1-10; Split-GFP-RNAadaptor (one of the pair)
B1: binds.
